Measured values from the nanobody polyreactivity screen of Harvey et al. (2022).

Assay: yeast display, Sf9 membrane polyspecificity reagent, FACS + sequencing; frameworks hold sequencing errors
Summary of the method: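 In a synthetic yeast display library (Saccharomyces cerevisiae BJ5465), nanobody expression was induced with galactose for 36–48 hours. FACS gates were set low and high (top ~1%) using anti-HA fluorescence for expression and streptavidin fluorescence for binding of the Sf9 membrane reagent. Each polyreactivity label is drawn from the gate of origin.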

Row | Sequence | polyreactivity (PSR sort gate)
1 | QDQLVESGGGLVQAGGSLGLSCAASGSIFGFYDMGWSRQAPGKERELVAAITSGDSTHYADSVKGRFTISRDNAQNTVYVQMNSLKPVDTAVYYCAASAPYRYYRSAYYSWGQGTQVTVSS | low polyreactivity
2 | QDQLVESGGGLVQAGGSLRLICAASARTFSHYPLGWYRQAAGKERELVATITRNGRITYYADSVKGRFTISRDNAKYTVYFQMNSLKPEDTAVYYFNKRWGGPIQFDYWGPGTQVTVSS | low polyreactivity
3 | QDQLVESGGGLVQAGGSLRLICSASGIILGSNAMGWYRQAPGKERELVAAITSSGSTYYADSVKGRFTISRDNAKNTVYIQMNSLKPEDTAVYYCATGWLRRAVRFNYWGQGTQVTLSS | high polyreactivity
4 | QDQLVESGGGLVQAGGSLRLRCAASGSIFGGYAMGWYRQAPGKERELVDAISSGGTTNYADSVMGRFTISRDNAKNTVYLQMNSLKQEDRAVYYCAREYGTTYQSVQVKFIQLDYWGQGTLVTVSS | low polyreactivity
5 | QDQLVESGGGLVQAGGSLRLSCAASGFIFFGYAMGWYRQAPGKERELVAAITSGGSTYYADSVKGRFTISRDNAKNTVYLQMNSLKPEDTAVYYCAAVLWYGSKRYGYWGQGTQVTVSS | high polyreactivity
6 | QDQLVESGGGLVQAGGSLRLSCAASGFIFGRYTMGWYRQAPGQDRELVAAISSRGGSTYDADSGKGRFTISRDNAKNTVYLQMNSLKPEDTAVYYCNALRRPSTEGRDYWGQGTQVTVSS | high polyreactivity
7 | QDQLVESGGGLVQAGGSLRLSCAASGFIFKWNAMGWYRQAPGKERELVAGITRGGSTYADSVKGRFTISRDNAKNTVYLQMNSLKPEDTAVDYCAAGDYDEYDYWGQGTQVTVSS | high polyreactivity
8 | QDQLVESGGGLVQAGGSLRLSCAASGFTFGSYAMGWYRQAHGKERELVAAITASGGSTYYADSVKGRFTISRDNAKNTVYLQMNSLKPEDTAFYYCATRRYDGVAAFRMYYWGQGTQVTVSS | high polyreactivity
9 | QDQLVESGGGLVQAGGSLRLSCAASGFTFRDYTRGWYRQAPGKERELVAAISLSGGSTYYADSVKGRFTISRDNAKNTVYFQMNSLKPEDTAVYYCAAGYLLWRTWDYGAGHNFWGQGTQVTVSS | high polyreactivity
10 | QDQLVESGGGLVQAGGSLRLSCAASGFTFRHYVMGGSRQAPGKERELVAAIDVRGGSTYYADSVKGRFTISRDNAKNTVYLQMNSLKPEDTAVYYCAKRLIPRLPIMQKMDYWGQGTQVTVSS | low polyreactivity
11 | QDQLVESGGGLVQAGGSLRLSCAASGFTFSAYAMGWYRQAPGKERELVAAISTRGGSTRYADSVKGRFTISRDNAKNTVYLQMNSLKPEDTAVYYCAVEVYSYLYYETYPTEYEYWGQGTQVTVSS | high polyreactivity
12 | QDQLVESGGGLVQAGGSLRLSCAASGFTFYPYTRGWYRQAPGKERELVAAISKSGGSTYYADSVKGRFTISRDNAKNTVYLQMNSLKPEDSAVYYCAAQRYSYYTPDDDYWGQGTQVTVSS | high polyreactivity
13 | QDQLVESGGGLVQAGGSLRLSCAASGGIFFYYVMGWYRKAPGKEREFVAAITSGGSTYYADSVKGRFTISGDNAKNTVYLQMNRLKPEDTAVYYCNARDVVDYSVWSRYAYDYWGQGTQVTVSS | low polyreactivity
14 | QDQLVESGGGLVQAGGSLRLSCAASGGTFSLYAKGWYRQAPGKEREFVAAISWRGTSTYYADSVKGRFTISRDNAKNTVYLQMNSLKPEDTAVYYCAARAWHEYGSWVQGTQVTVSS | high polyreactivity
15 | QDQLVESGGGLVQAGGSLRLSCAASGHIISTYAMGWYRPAPGKERQLVASISENGGTTYYADSVKGRFTISRDIAKNTVYLQMYSLKPEDTAVYYCNADAYVYFDDGDYWGQGTQVTVSS | low polyreactivity
16 | QDQLVESGGGLVQAGGSLRLSCAASGIIFYGYAMGWYRQAPGKERQLVAGISSGGSTYYADSVKGRFTISRDNAKNTVYLQMNSLNPEDTAVYYCNAEGGYSYESTDHYRYDYWGLGTQVTVSS | low polyreactivity

Row | Sequence | polyreactivity (PSR sort gate)
17 | QDQLVESGGGLVQAGGSLRLSCAASGIIFYVYAMGWYRLAPGKERELVAAISRSGGRTYYADSVKGRFTISRDNAKNTVYFQMNSLKPEDTAVYYCAADAYRTPTHYYWGQGTQVTVSS | high polyreactivity
18 | QDQLVESGGGLVQAGGSLRLSCAASGITFDRYALGWYRQAPGKEREFVAAISWRGGSTYYADSVKGRFTISRDNAKNTVYLQMNSLKPEDTAVYYCAVGYYDHDYWYEYWGQGSQVTVSS | high polyreactivity
19 | QDQLVESGGGLVQAGGSLRLSCAASGITFQWYAMGWYRQAPGKEREFVAAITYRGGSTYYADSVKGRFTISRDNAKNTVYLQMNSLKPEDTAVYYCARDDSRLLHPSWLDYWGKGTQVTVSS | high polyreactivity
20 | QDQLVESGGGLVQAGGSLRLSCAASGITFSSNAMGGYRQAPGKERELVAAISRNGDRTYYADSVKGRFTISRDNAKNTVYLQMNSLKPEVTAVYYCATAYPGSRRDYWGQGTQVTVSS | high polyreactivity
21 | QDQLVESGGGLVQAGGSLRLSCAASGITFYTYAMGWSRQAPGKERELVAAISRSGGSTYYADSVKGRITISRDNAKYTVYLQMNSLKPEDSAVYYCAAVYRGRDMDYWGLGTQVTVSS | high polyreactivity
22 | QDQLVESGGGLVQAGGSLRLSCAASGLIFIDYAMGWYRQAPGKERELVAAITRGGARTYYADSVKGRFTISRDNAKNTVYLQMNSLNPEDTAVYYCAADRPGSRYIDVDYWGQGTQVTVSS | high polyreactivity
23 | QDQLVESGGGLVQAGGSLRLSCAASGLIFLYAMGWYRQAPGKERELVAAISNGGSTYYADSVKGRFTISRDNAKNTVYLQMNSLKPEDTAVYYCAAKGVRRRYRPDMYYWGQGTQVTVSS | high polyreactivity
24 | QDQLVESGGGLVQAGGSLRLSCAASGLIFNVNNMGWYRQAPGKDRELVAAISWSGTSTYYADSVKGRFTISRDKAKNTVYLQMNSLKPEDTAVYYCAAYNHRWEYEYWGQGTQVTVSS | high polyreactivity
25 | QDQLVESGGGLVQAGGSLRLSCAASGLIFRIYAMGWYRQAAGKERELVAAITSGGTSTSYADSVKGRFSISRDNAKNTVYLQMNSLKPEDTAVYYCNARWSDRVRIGLDYWGQGTQVTVSS | high polyreactivity
26 | QDQLVESGGGLVQAGGSLRLSCAASGLIIRWYAMGWDRQAPGKERELVAAISGNGGRTYYADSVKGRFTISRDNASNTVYLQMNSLKPEDTAVYYCAAEYRRALGVDYWGQGTQVTVSW | high polyreactivity
27 | QDQLVESGGGLVQAGGSLRLSCAASGLTFDSYAMGWYRQAPGKERELVAAISWNTASTYYADSVKGRFTISRDNAKNTVYLQMNSLKPEDTAVYYCAAARSRRPHYDYWRQGTQVTVSS | high polyreactivity
28 | QDQLVESGGGLVQAGGSLRLSCAASGLTFEVYAMGWYRQAPGKERELVAAISSGGGSKYYADSVKGRFTISRDNAKNTVYLQMISLKPEDTAVYYCNAVAKLYYWRYDYLGQGTQVTVSS | low polyreactivity
29 | QDQLVESGGGLVQAGGSLRLSCAASGLTFRLYAMGSYRQAPAKEREWVAAITSSSGSTYYADSVKGRFTISRDTANYTVYLQMNSLKPEDTAVYYCNAVRYTTQTPNVDYGYWGLGTQVTVSS | high polyreactivity
30 | QDQLVESGGGLVQAGGSLRLSCAASGLTLLHYAMGWYRQAPGKERELVAAISTRGGSTYYADSVKGRFTISRDNAKNTVYLQMNSLKPEDTADYYCNALKGRPRGTAGYYRVEYWGQGTQVTVSS | high polyreactivity
31 | QDQLVESGGGLVQAGGSLRLSCAASGLTYYVYSMGWYRQAPGKERELVARITWSGGSTYYADSVKGRFTISRDNAKNTVYLQMNSVKAEDTAVYYSAAEWSEESDYWGQVTQVTVSS | low polyreactivity
32 | QDQLVESGGGLVQAGGSLRLSCAASGNIFKCKVMGWYRQAPGKERELVAAISRSGGRTYYADSVKGRFTISRDNAKNTVYLQMNSLKPVDTAVYYCNTKHRTKPTRPVDYWGQGTQVTVSS | high polyreactivity
